Source: article doi:10.1101/2023.01.23.525191, “Mechanism of an alternative splicing switch mediated by cell-specific and general splicing regulators” (bioRxiv, 2023)

Columns and labels:
[1] = biological target: the molecule itself; test: AUC; sedimentation velocity, 500 mM KCl, 20 mM HEPES, 1 mM TCEP, pH 7.9, 20 °C; FL 0.46 and ΔC20 0.57 mg/ml as printed; dimers and higher-order oligomers
[2] = biological target: the molecule itself; test: SEC; size exclusion chromatography of recombinant untagged protein; dimer and higher-order assemblies

B1: recombinant untagged full length rat RBPMS-A (natural protein)
chain: not shown
notes: RBPMS isoform A (RBPMS-A), rat, cDNA NCBI XM_006253240.2, full length open reading frame; it may be the rat protein; Exists as a mixture of dimers and higher-order oligomers; also called FL RBPMS; FL; source: E. coli BL21 (DE3), purified (Histrap, TEV cleavage, mono Q, Superdex 200); not shown: His6, N-terminal, cleaved
[1]
  stoichiometry N: ~21
[2]
  stoichiometry N: 2
